Test results from the supplement of paper PMC9170038.

Tested on: K4 kissing-loop RNA reporter
Assay: apparent KD of K4 kissing-loop reporter; higher = weaker reporter binding
Settings: Eterna round: R107
Procedure: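 RNA-MaP round R107: designed RNA switches with theophylline, tryptophan, arginine or FMN aptamers are transcribed on-chip within common flanks. They are titrated with a labelled K4 kissing-loop RNA reporter in RNA-MaP buffer (100 mM Tris pH 7.5, 80 mM KCl, 4 mM MgCl2), without ligand or with the indicated ligand. Median apparent KD per design.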

[1] = input ligand: theophylline 20 uM
[2] = input ligand: tryptophan 2.4 mM
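Further: bound reporter read as fluorescence of individual clusters on recovered sequencing chips by microscopy, with normalized cluster intensities fitted with a binding model.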

| Sequence | apparent KD of K4 kissing-loop reporter (input ligand: FMN 200 uM) | apparent KD of K4 kissing-loop reporter (input ligand: arginine 13.2 mM) | apparent KD of K4 kissing-loop reporter (input ligand: none) | apparent KD of K4 kissing-loop reporter [1] | apparent KD of K4 kissing-loop reporter [2] |
| --- | --- | --- | --- | --- | --- |
| AGAUGGCAGUGAUGUUGCUGUUGGAGGGAUAAGGAUAUUGGCUAAACAAGAAGGUAUCGGCGGCAUUGAGGAAUGGGAGGCGCCU [theeternabot_exclusion_KL_FMN_A_7] | 530 nM | 329 nM | 510 nM | 449 nM | 405 nM |
| AGAUUCGACACGGCCGCCACUCGUGGUGGAUUAUCCUAUGUAAGACAUGAGUGAUGUUCAUGUACGAGGACCGGGUGUUGAGUCU [KL-XTryp-B5 #analogue] | 496 nM | 403 nM | 488 nM | 568 nM | 272 nM |
| AGCAUUAUCAGAAGGAGCGUGUAUAAUUCAAGAGAAUUGUUUUCGAGUGAUGUUCGUAAUACACAGGUAGGUCGCUGAUAUAGCA [JR_ExcArginiB_Sub001] | 224 nM | 258 nM | 257 nM | 302 nM | 221 nM |
| AGCAUUUUCAGAAGGAGCGUGAAUUAUUCUUAAGUAUAUUAUACGAGUGAUGUUCGUAUUUCACAGGUAGGUCGCUGAUAUAGCA [JR_SSArginiB_Sub003] | 57.4 nM | 89.2 nM | 54.6 nM | 76.2 nM | 46.8 nM |
| AGCGACUCGAAAGGGUCGCGGCUAAGGGAUACCAGUGAUGUUGGUCACCCUUGGCAGCCCAGAAGCCAAGCCACCAAAGGUGGCA [Omei KL Theo A Exc A v10] | 124 nM | 99 nM | 119 nM | 114 nM | 116 nM |
| AGCGGCGCGCUGGAUACCAGUGUCCGACGCGUUAGUAUAGAUCCAAAGUGAUGUUUUGGUCACCCUUGGCAGCCACCUCUGUCGG [theeternabot_exclusion_KL_Theo_B_29] | 237 nM | 192 nM | 245 nM | 257 nM | 195 nM |
| AGCUCAGCGUGACUCGAUAAGAGUCACAAACGAGGACCGGUACGGCCGCCACUCGAAAUAAAGGGAGUGAUGUUCUCGCUGAGCA [#SwitchBubble 4 #StaticStem #K4Late] | 641 nM | 300 nM | 370 nM | 274 nM | 625 nM |
| AGCUGCCGAAUAGAUACCAGUGUCUUUAGUGAUGUUUCAGAGCUGGCACGAUCAGAAGGUCACCCUUGGCAGCUAGUGCCAGCGU [theeternabot_exclusion_KL_Theo_B_39] | 340 nM | 145 nM | 261 nM | 344 nM | 267 nM |
| AGCUGUAGCAGAAGGAGCGACAGUUAUUCUGAUAGUACUCUGAGUGAUGUUCAGAACGACUGUCAGGUAGGUCGCUGUUACAGCU [Arg B Ex t8b] | 166 nM | 167 nM | 169 nM | 143 nM | 162 nM |
| AGGAGCGUGGGAUGUAAAUCGCACGCUCCUCGAGGACCGGUACGGCCGCCACUCGCUCGCGCCGAGUGAUGUUCGGCCGGCGAAC [#2 Same State - Tryptophan A Attempt #13 (HarryS)] | 243 nM | 325 nM | 225 nM | 209 nM | 446 nM |
| AGGAUCCACCAGUGAUGUUGGAAAUACAUCAAGGAUAUGACGAAAGUCAGAAGGUGGUAGACUGGACAAAGUCCAGUUGGAUCCA [KL-SSFMN-A18] | 135 nM | 54.9 nM | 62.7 nM | 112 nM | 66.4 nM |
| AGGAUCCGUCGACAAAAGUCGACAAUAACCAAGGAUAUGACGAAAGUCAGAAGGUGGUCUUAUGACCAGUGAUGUUGGUGGAUCC [FmnA 15 #SwitchBubble #K4Late] | 891 nM | 245 nM | 500 nM | 197 nM | 243 nM |
| AGGAUCGAAGAUCCAGCAGUCAAGCAAUACCGAGGACCGGUACGGCCGCCACUCGGAGUGAUGUUCCGAAGACUGCAAAAUAAAA [#SwitchBubble 8] | 640 nM | 1050 nM | 955 nM | 592 nM | 86.2 nM |
| AGGAUGUAGUGAUGUUAUAUAAGAAGUAAACGAGGACCGGUACGGCCGCCACUCGAAGCGGCUACUAGCGCGCGCGCGCGCGCGC [ExTryptoA.Ca] | 298 nM | 345 nM | 263 nM | 336 nM | 259 nM |
| AGGCACGAGCAAGGAUAUCGAGUAGAGUGAUGUUCUGCCUGGGUUGGCCCGUAAGGGCCUUCCCAGCGAGAAGGUGCUCGUGCCU [#2 Same State - FMN A Attempt #10 (HarryS)] | 233 nM | 505 nM | 647 nM | 679 nM | 536 nM |
| AGGCACGAGCAAGGAUAUCGAGUAGAGUGAUGUUCUGCCUGGGUUGGCUCGCAAGGGCCUUCCCAGCGAGAAGGUGCUCGUGCCU [#2 Same State - FMN A Attempt #17 (HarryS)] | 277 nM | 743 nM | 772 nM | 745 nM | 830 nM |

| Sequence | apparent KD of K4 kissing-loop reporter (input ligand: FMN 200 uM) | apparent KD of K4 kissing-loop reporter (input ligand: arginine 13.2 mM) | apparent KD of K4 kissing-loop reporter (input ligand: none) | apparent KD of K4 kissing-loop reporter [1] | apparent KD of K4 kissing-loop reporter [2] |
| --- | --- | --- | --- | --- | --- |
| AGGGAUGUUAAAGGAUAUAGAAAGUGAUGUUAGAAAGUGAGUGAUGUUGAUGUAAGUGAUGAUAUGUUAGAAGGUUAACAAAACG [abc] | 212 nM | 111 nM | 192 nM | 169 nM | 144 nM |
| AGGGUAAGGCGUUAACAUGACACCUGGGAAGGAGCGCGGUACACCGCAGGUAGGUCGCCCAGUGAUGUUGGGUGUAAGUAUGAGU [KL-XArg-A23] | 137 nM | 109 nM | 135 nM | 146 nM | 115 nM |
| AGGUGAGAGUGAAGGAGCGAUCGCGCCAGUGAUGUUGGUGAGCAUGACGAAAGUCAUGCCGAUCAGGUAGGUCGCACUCUUACUC [Omei KL Arginine B SS B v3] | 700 nM | 421 nM | 663 nM | 547 nM | 798 nM |
| AGGUUUUGAUUAGGAUAUGCACUGAGGAGGAGAAUAUAGUGAUGUUAUAUAAGAGGAAGUAGUAGAGUAGAAGGGAUUGAGGUUU [SSFMNB.S] | 208 nM | 167 nM | 224 nM | 210 nM | 158 nM |
| AGUAAUGUCACGGCCGCCACUCUUUAUUGUUUUUAUAGUUAUAAAUCUUGCCAGUGAUGUUGGUAGAGGACCGGGUGACUUAAUA [#26 K4 Tryptophan B Same State] | 222 nM | 208 nM | 245 nM | 199 nM | 194 nM |
| AGUACGGACACGGCCGCCACUCAGAAGAAGACAGUAGUGAUGUUACUGAUGGUGAGAAUAAUAAAGAGGACCGGGUGUCGUGCAA [#05 K4 Tryptophan B Same State] | 270 nM | 191 nM | 286 nM | 230 nM | 171 nM |
| AGUGAUGUGGGAAGGAGCGGUAUAUGAGUUCAGUGAUGUUGAAGUGAUGCUGUAGUGUUGUGCCAGGUAGGUCGCCUAGAUGUUA [KL-XARG B25] | 333 nM | 254 nM | 316 nM | 226 nM | 233 nM |
| AGUGAUGUUCCUCCUCUUGGUCUUGGUGGGCGAGGACCGGUACGGCCGCCACUCGAUGUGGGAGUGAUGUUUCCAUAUGAUGUUU [Tryptophan A] | 568 nM | 580 nM | 621 nM | 675 nM | 401 nM |
| AGUGAUGUUGAGUUAUGUUAGUGAAGUGAUCGAGGACCGGUACGGCCGCCACUCGAGUGAUGAGUGAGUGAUGUUUGUUUAGUGA [bvbmullin] | 639 nM | 487 nM | 857 nM | 692 nM | 404 nM |
| AGUGAUGUUGUGUGAUGUUAGUGAAGUGAUCGAGGACCGGUACGGCCGCCACUCGAGUGAUGAGUGAGUGAUGUUUGUUUAGUGG [#17 K4 Tryptophan A Same State] | 258 nM | 124 nM | 206 nM | 186 nM | 139 nM |
| AGUGAUGUUGUGUUAUGCUAGGGAAGUGAUCGAGGACCGGUACGGCCGCCACUCGAGUGAUGAGUGAGUGAUGUUUGUUUAGGGA [sdsmullin] | 1100 nM | 480 nM | 961 nM | 844 nM | 490 nM |
| AGUGAUGUUUCUUUUAAGAGUGAUGUUUUUCGAGGACCGGUACGGCCGCCACUCGAGUGAUGAGUGCGUUGUUGUGAUGUUUAGU [#12 K4 Tryptophan A Exclusion] | 461 nM | 313 nM | 425 nM | 459 nM | 303 nM |
| AGUGGUGUUGUGUUAUGUUUGGGAAGUGAUCGAGGACCGGUACGGCCGCCACUCGAGUGAUGAGUGAGUGAUGUUUGUUUAGGGA [whbob_SS_Tryp_A_m10] | 927 nM | 636 nM | 1530 nM | 646 nM | 658 nM |
| AGUGUGCAAAAGCACACUCAGAACAAGGACAAGGAUAUCUACUAAUAGAGAAGGUGUCCUUUCCUUAGUGAUGUUAAGGAACUGA [Omei KL FMN A SS D v5] | 278 nM | 524 nM | 640 nM | 680 nM | 615 nM |
| AGUGUUGUUUUUUUUAAGAGUGAUGUUUUUCGAGGACCGGUACGGCCGCCACUCGAGUGAUGAGUGAGGUGUGGUGAUGAUUAGU [#10 K4 Tryptophan A Exclusion] | 816 nM | 790 nM | 1050 nM | 664 nM | 337 nM |
